In PMC9114768 (2022):

B1: monoclonal antibody 127 (antibody, V domains shown)
VH: QVQLQQPGAELVKPGASVKLSCKASGYTFTSYWMHWVKQRPGQGLEWIGEINPSNGRKNYNEKFKSKATLTVDKSSSTAYMQLSSLTSEDSAVYYCVRGDYGSSYYWYFDVWGAGTTVTVSS
VL: not shown
B2: monoclonal antibody 150 (antibody, V domains shown)
VH: QVQLQQPGAELVKPGASVKLSCKASGYTFTSYWMHWVKQRPGQGLEWIGEINPSNGRKNYNEKFKSKATLTVDKSSSTAYMQLSSLTSEDSAVYYCVRGDYGSSYYWYFDVWGAGTTVTVSS
VL: not shown

Key:
[1] = target: C-terminal Fc-tagged human ACE2 recombinant protein (human, UniProt Q9BYF1); assay: SPR
Chain of C-terminal Fc-tagged human ACE2 recombinant protein (Q9BYF1 18-740): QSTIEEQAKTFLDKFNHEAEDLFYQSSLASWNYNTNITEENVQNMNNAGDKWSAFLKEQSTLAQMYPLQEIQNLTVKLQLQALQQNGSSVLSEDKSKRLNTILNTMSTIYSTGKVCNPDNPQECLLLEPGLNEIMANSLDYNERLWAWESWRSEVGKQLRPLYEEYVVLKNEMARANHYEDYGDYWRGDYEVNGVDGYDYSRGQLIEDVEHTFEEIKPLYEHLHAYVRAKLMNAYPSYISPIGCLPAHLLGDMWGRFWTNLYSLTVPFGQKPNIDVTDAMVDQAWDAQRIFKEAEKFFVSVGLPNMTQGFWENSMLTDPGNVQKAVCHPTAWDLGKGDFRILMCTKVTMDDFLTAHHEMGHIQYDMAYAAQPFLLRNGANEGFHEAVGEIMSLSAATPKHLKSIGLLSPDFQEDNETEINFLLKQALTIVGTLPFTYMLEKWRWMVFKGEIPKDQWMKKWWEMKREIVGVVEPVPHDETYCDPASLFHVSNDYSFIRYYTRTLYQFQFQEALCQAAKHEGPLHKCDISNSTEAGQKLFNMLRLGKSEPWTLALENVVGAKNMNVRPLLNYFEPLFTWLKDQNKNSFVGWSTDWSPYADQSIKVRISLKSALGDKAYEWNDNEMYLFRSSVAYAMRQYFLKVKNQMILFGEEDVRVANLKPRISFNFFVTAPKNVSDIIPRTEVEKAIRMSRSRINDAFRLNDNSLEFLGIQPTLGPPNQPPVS

[2] = target: His-tagged SARS-CoV-2 S1-RBD recombinant protein, wild type (SARS-CoV-2, UniProt P0DTC2 319-541); assay: SPR

| Binder | koff [1] [s⁻¹] | koff [2] [s⁻¹] |
| --- | --- | --- |
| B1 | 0.000442 | 0.00013 |
| B2 | 0.00039 | 0.000441 |
